In PMC4735030:

Molecular target: porcine colonic mucins (porcine)
Assay: SPR

For “recombinant BL0675 A type with a C-terminal 6 x His tag (natural protein)”, the Kd was 98.2 nM, the koff was 0.00279 s⁻¹ and the kon was 28400 M⁻¹ s⁻¹.
